Data reported in article PMC6160459, “Identification of Peptide Mimotope Ligands for Natalizumab” (Scientific Reports, 2018).
Like-named read-outs stand apart in the source and are kept apart here.

How the values were obtained:
CD49d+ JeKo-1 cells = assay: CD49d+ cell based binding assay of heat exposed natalizumab (flow cytometry); conditions: 60 °C for 30 m, 1 h or 2 h; both GSH and non-GSH treated samples
Experimental: Natalizumab-spiked samples in serum were diluted 25-fold in 5% FBS/DPBS/0.05% NaN3. CD49d+ JeKo-1 cells were suspended in 5% FBS/DPBS/0.05% NaN3, and 25 µl of suspension (10^5 cells) were added to 25 µl of diluted sample and incubated for 20 m on ice. Washes, secondary incubation, collection, and analysis proceeded as in the CD49d+ Cell Based Peptide Competition Assay protocol.
(§1) Natalizumab was spiked into neat serum. The samples were split in half and 100 mM Glutathione reduced (GSH, Sigma-Aldrich, St. Louis MO) in H2O was added to one set to produce a final concentration of 3 mM GSH. Samples were then incubated overnight at 37 °C to induce arm exchange of IgG4 molecules. For ELISA assays, samples were subsequently diluted 250-fold in 2.5% BSA/TBST to produce a final serum concentration of 0.4%.
(§2) Samples containing GSH treated or non-GSH treated natalizumab in serum were heated at 60 °C for 30 m, 1 h, or 2 h. Control samples were held at 4 °C. For ELISA assays, samples were subsequently diluted 250-fold in 2.5% BSA/TBST to produce a final serum concentration of 0.4%.

[1] = Ntz-01 peptide ELISA of heat exposed natalizumab samples; type: binding; conditions: 60 °C for 30 m, 1 h or 2 h; particularly for the GSH treated samples; 0.4% serum
Experimental: Wells of a NeutrAvidin-coated 96-well plate or 8-well strips (Thermo Fisher) were coated with 100 µl of biotinylated peptide at 7.5 µg/ml in molecular grade H2O (GE Healthcare Life Sciences, Logan, UT) for 1 h. Wells were washed five times with TBST. Wells were then blocked with 200 µl of 5% normal goat serum diluted from 10% normal goat serum (Thermo Fisher) in TBS for 1 h. Wells were washed five times with TBST. Antibody was spiked into 2.5% BSA in TBST (2.5% BSA/TBST) or into pooled defibrinated human AB serum (serum; Gemini, Woodland CA) diluted in 2.5% BSA/TBST. The final dilution of serum was 0.4% unless otherwise noted. Wells were incubated with 100 µl of antibody-spiked samples for 1 h and then washed five times with TBST. Bound natalizumab was detected with mouse anti-human IgG4 horse radish peroxidase (anti-IgG4-HRP; Abcam, Cambridge, MA) diluted 1:2000-1:5000 in TBST. Wells were incubated with 100 µl of diluted anti-IgG4-HRP for 30 m and then washed nine times with TBST. Turbo TMB substrate (Thermo Fisher) was added to the wells and allowed to develop for 12–15 m shielded from light. The reaction was stopped with 1 M H2SO4 (Thermo Fisher). Optical density (OD) was read at 450 nm on a Multiskan FC plate reader (Thermo Fisher) and data were analyzed with GraphPad Prism v5 or v7 software (Graphpad Software Inc, La Jolla CA).
Natalizumab was spiked into neat serum. […]

[2] = tested on: natalizumab neutralizing anti-Idiotype (anti-Id) Fab fragment; assay: Anti-Id ELISA of heat exposed natalizumab samples; type: binding; conditions: 60 °C for 30 m, 1 h or 2 h; GSH or non-GSH treated samples; 0.4% serum
Experimental: Wells of a Costar 96-well high binding plate were coated with 100 µl of natalizumab neutralizing anti-Idiotype (anti-Id) Fab fragment (Bio-Rad, Hercules CA) in phosphate-buffered saline (PBS; Corning Life Sciences) at 1 µg/ml overnight at 4 °C. The remining protocol proceeded as in peptide ELISA Protocol-1, with the following exceptions. 1) PBS/PBST was used in place of TBS/TBST (except for washes), 2) goat anti-human IgG HRP (Jackson Immunoresearch, West Grove PA) diluted 1:5000 was used as the secondary conjugate, and 3) TMB substrate was allowed to develop for 8–10 m.
as §1, §2

MS patients [3] = conditions: AFFIRM study; cited from earlier work
From the text: Multiple sclerosis (MS) is a leading cause of neurologic disability that affects approximately 400,000 people in the US and 2.5 million worldwide. Natalizumab (marketed as Tysabri) is the top selling biologic drug indicated for MS and has been used to treat 177,800 patients worldwide as of November 2017[2]. […] Natalizumab is a humanized recombinant IgG4 mAb that targets the α4 chain of α4β1 integrin (also known as very late a ...

MS patients [4] = conditions: cited from earlier work
From the text: The immunosuppressive activity of natalizumab has been associated with opportunistic infection by John Cunningham (JC) virus which may lead to progressive multifocal leukoencephalopathy (PML), a serious and often-fatal opportunistic brain infection. Approximately 56–58% of MS patients are positive for anti-JC virus antibodies, which puts them at increased risk for developing PML while on natalizumab[5]–[7]. The estimated incidence of PML in patients positive for anti-JC virus antibodies is 3.87 per 1,000 patients after at least 1 month of natalizumab treatment. It increases to 11.1 per 1,000 p ... || The standard dosing regimen for natalizumab is 300 mg by IV infusion every 4 weeks. […] It has been postulated that high serum concentrations may increase the risk of PML[10],[11]. […] Conversely, low drug concentrations have been associated with a lack of natalizumab efficacy. Multiple enzyme-linked immunosorbent assays (ELISAs) to detect levels of circulating natal ...

[5] = standard dosing, 300 mg by IV infusion every 4 weeks; cited from earlier work
Experimental: The standard dosing regimen for natalizumab is 300 mg by IV infusion every 4 weeks. […] It has been postulated that high serum concentrations may increase the risk of PML[10],[11]. […] Conversely, low drug concentrations have been associated with a lack of natalizumab efficacy. Multiple enzyme-linked immunosorbent assays (ELISAs) to detect levels of circulating natal ...

B1: natalizumab: humanized recombinant IgG4 mAb that targets the α4 chain of α4β1 integrin and a4β7 integrin (antibody, V domains shown)
VH: QVQLVQSGAEVKKPGASVKVSCKASGFNIKDTYIHWVRQAPGQRLEWMGRIDPANGYTKYDPKFQGRVTITADTSASTAYMELSSLRSEDTAVYYCAREGYYGNYGVYAMDYWGQGTLVTVSS
VL: DIQMTQSPSSLSASVGDRVTITCKTSQDINKYMAWYQQTPGKAPRLLIHYTSALQPGIPSRFSGSGSGRDYTFTISSLQPEDIATYYCLQYDNLWTFGQGTKVEIK
With B1 the “functional cell binding with increased heat exposure” value (CD49d+ JeKo-1 cells) was “Decreased cell binding”, the “binding with increased heat exposure by Ntz-01 peptide ELISA” value [1] was “Decreased binding” and the “changes in binding with heat exposure by anti-Id ELISA” value [2] was “Changes in binding with heat exposure were not observed”. For the same molecule, the “reduction of sustained physical disability relative to placebo” value (MS patients [3]) was 42%, the “estimated incidence of PML” value (MS patients [4]; JC virus antibody positive patients with prior use of immunosuppressants and long-term use of natalizumab (24–48 months)) was 11.1 per 1,000 patients and the “decrease of PML risk” value (MS patients [4]; extended interval dosing (infusion every 5–12 weeks instead of every 4 weeks)) was 94%. The “estimated incidence of PML” value (MS patients [4]; patients positive for anti-JC virus antibodies, after at least 1 month of natalizumab treatment) was 3.87 per 1,000 patients and the “variation of serum natalizumab concentrations” value [5] was “over 100 fold”.
